Source: patent US5985583, “Cloning and expression of gonadotropin-releasing hormone receptor” (Mount Sinai School of Medicine of The City University of …, dated 1999)
Each block holds one molecule with its values, some of them ahead of it. Non-standard residues stand in square brackets, D forms with d. No end group written: not given here. d(pGlu) = O=C1CC[C@H](C(=O)O)N1; NMeL = CN[C@@H](CC(C)C)C(=O)O

Experiments:
[1] = molecular target: human gonadotropin-releasing hormone receptor (GnRH-R), clone LC27-4 (human); experiment: Kd derived by the filing from the IC50 of inhibition of GnRH-stimulated inositol phosphate production in COS-1 cells expressing the human GnRH-R
[2] = molecular target: human gonadotropin-releasing hormone receptor (GnRH-R), clone LC27-4 (human)
[3] = molecular target: T1, mouse gonadotropin-releasing hormone receptor (GnRH-R), clone WZ25 (mouse); experiment: displacement of 125I-GnRH-A by GnRH, membranes of WZ25 RNA-injected oocytes
T1 chain: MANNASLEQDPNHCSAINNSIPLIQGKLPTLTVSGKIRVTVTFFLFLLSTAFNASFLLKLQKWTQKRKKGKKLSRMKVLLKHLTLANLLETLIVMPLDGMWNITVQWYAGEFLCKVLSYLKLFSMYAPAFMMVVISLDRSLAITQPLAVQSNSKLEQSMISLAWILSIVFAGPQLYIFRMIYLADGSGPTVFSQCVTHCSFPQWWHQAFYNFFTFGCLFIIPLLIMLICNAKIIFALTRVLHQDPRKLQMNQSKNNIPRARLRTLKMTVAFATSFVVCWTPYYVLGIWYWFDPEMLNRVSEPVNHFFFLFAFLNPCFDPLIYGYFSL
Method: (§1) For membrane preparation, 500 oocytes were each injected with 2.5 ng synthetic WZ25 RNA. After 48 hours, oocyte membranes were prepared as described (Kobilka et al., 1987, J. Biol. Chem. 262: 15796–15802) and resuspended in binding buffer containing 10 mM HEPES, 1 mM EDTA, and 0.1% bovine serum albumin to give a final concentration of 20 oocytes/ml.
(§2) To further characterize the receptor encoded by this cDNA clone, radioligand binding assays were performed on membranes purified from oocytes injected with the WZ25 RNA transcript.

[4] = molecular target: T1, mouse gonadotropin-releasing hormone …; experiment: displacement of 125I-GnRH-A by GnRH-A, membranes of WZ25 RNA-injected oocytes
Method: as §1, §2

[5] = molecular target: T2, human gonadotropin-releasing hormone receptor (GnRH-R), clone LC27-4 (human); experiment: displacement of 125I-GnRH-A, membranes of COS-1 cells transfected with the human GnRH-R
T2 chain: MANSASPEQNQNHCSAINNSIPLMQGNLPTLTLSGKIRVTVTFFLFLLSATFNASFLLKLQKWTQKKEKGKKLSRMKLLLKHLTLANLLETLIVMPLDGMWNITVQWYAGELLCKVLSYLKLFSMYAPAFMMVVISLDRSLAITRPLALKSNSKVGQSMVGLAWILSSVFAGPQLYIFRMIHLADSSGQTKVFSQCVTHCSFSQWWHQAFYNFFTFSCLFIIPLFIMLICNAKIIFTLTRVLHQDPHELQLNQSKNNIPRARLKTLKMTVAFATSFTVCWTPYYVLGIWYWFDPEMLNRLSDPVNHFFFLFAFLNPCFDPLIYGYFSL
Method: (§3) For studies on inositol phosphate production, 1.8 ×10^5 cells/well (12-well plates) were transfected with 1.5 μg DNA. Cells were assayed 48 hours after transfection.
Cell membranes were prepared from transfected cells with a single centrifugation step as described for rat pituitaries (Millar et al., 1989, J. Biol. Chem. 264:21007–21013).

[6] = molecular target: T1, mouse gonadotropin-releasing hormone …; experiment: displacement of 125I-GnRH-A by GnRH-A, αT3-1 cell membranes (endogenous mouse receptor)
[7] = molecular target: T2, human gonadotropin-releasing hormone …; experiment: Kd derived by the filing from the IC50 of inhibition of GnRH-stimulated inositol phosphate production in COS-1 cells expressing the human GnRH-R
Method: as §3

Kd [1]: 0.21 nM
IC50 of inhibition of GnRH-stimulated (10-8 M) inositol phosphate production in COS-1 cells transfected with pSV2A-human GnRH-R [2]: 6.7e-09 M
Molecule: antagonist 13: [Ac-D-NaI1,D-α-4-ClPhe2, D-Pal3,D-Arg6, D-Ala10]GnRH (from UniProt P01148) (peptide)

EC50 of inositol phosphate production in COS-1 cells transfected with pSV2A-human GnRH-R [2]: 3 nM
inositol phosphate production in COS-1 cells transfected with pSV2A-human GnRH-R [2]: 8 fold
Molecule: gonadotropin-releasing hormone (GnRH) (from UniProt P01148) (peptide)

binding result [3]: binds
Molecule: QHWSYGLRPG [gonadotropin-releasing hormone (GnRH)]

Kd [4]: 4.5 nM
Kd [5]: 0.97 nM
Kd [6]: 2.9 nM
Molecule: QHWSY[dA][NMeL]RP-NHEt (ends and bridges not checked; also: 125I label on the tracer form) [[D-Ala6, NαMe-Leu7, Pro9-NHEt]GnRH (GnRH-A)]

Kd [5]: 8.4 nM
IC50 of inhibition of GnRH-stimulated (10-8 M) inositol phosphate production in COS-1 cells transfected with pSV2A-human GnRH-R [2]: 1.05e-07 M
Kd [7]: 3.6 nM
Molecule: [d(pGlu)][dF][dW]SY[dW]LRPG (ends and bridges not checked) [antagonist 5: [D-pGlu1,D-Phe2,D-Trp3,6]GnRH]
